The experiment deals with T1, SARS-CoV-2 刺突ECD蛋白 (Sinobiological) (SARS-CoV-2, UniProt P0DTC2 14-1213).
T1 construct: extracellular domain; also called Spike ECD蛋白
Briefly: ELISA, spike ECD coated 50 ng/well, antibody titrated. In general terms: An ELISA detects its analyte on a solid surface through an enzyme-linked reagent.

B1: A70抗体 (antibody, V domains shown)
VH: QITLKESGPTLVKPTQTLTLTCTFSGFSLDTPGVAIGWIRQPPGRALEWLGLIYWDGDERYNPSLTSRVTLTKDTSKNQVVLTMTNVDSVDTGTYFCGHKTIPTIFGVWGQGAPVTVSS
VL: QSALTQPASVSGSPGQSITISCAATSGDFGVFNYVSWYQQHPGKAPKLIIFEVSSRPSGVSNRFSGSKSGNTASLTVSGLQAEDEAVYHCSSYSTSSVVFGGGTKLTVL
notes: also called 抗体A70
As a reminder, the EC50 is the concentration needed to bring the measured effect to its halfway point. Low values mean higher potency in that assay, high ones lower potency in that assay. B1 returned an EC50 of 0.0351 µg/mL.

B2: A46抗体 (antibody, V domains shown)
VH: EVQLLESGGGLIQPGGSLRLSCAVSEFIVSRNYMSWVRQAPGKGLEWVSVLYPGGSTFYADSVKGRFTISRDESTNTLFLQMNTLRVEDTAVYYCARDFGDFYFDFWGQGTLVTVSS
VL: EIVLTQSPGTLSLSPGQRAALSCRASQSVSTYLAWYQQKPGQAPRLLIHDASSRASGVPDRFSGTGSGTDFTLTITRLEPEDFAVYYCQQYGTSPRTFGQGTKLEIK
notes: also called 抗体A46
In turn, B2 displayed a concentration for a half-maximal effect (EC50) of 0.0261 µg/mL.

Values taken from patent publication CN115975019A (INST PATHOGEN BIOLOGY CAMS, dated 2023).
